Literature values, collected in article PMC6803667, “Binding site plasticity in viral PPxY Late domain recognition by the third WW domain of human NEDD4” (Scientific Reports, 2019).

Biological target: ARRDC3 peptide (Homo sapiens)

Sequence of NEDD4 WW3 (P46934 837-876): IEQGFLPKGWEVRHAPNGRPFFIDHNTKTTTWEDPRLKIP

Kd: 3 µM
Substance: NEDD4 WW3 (from UniProt P46934)
